Experimental data as given in the domain aggregation screens of Martell et al. (2025).

Experiment: soluble fraction after stress (log2 fold change); higher = more stays soluble; pooled small domains, quantitative proteomics
Conditions: stress: 75 degC
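Further: 20 min heating vs room temperature control held 20 min.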

HMANVQLAKNLKTLRKKYNYTQQDVSTFLNITRQAYSHYEQALREPDLNTLVHLSRFYQVTLDELI
soluble fraction (log2): -4.33

HMANYHDIAADLRSKINHGFYEEEKKLPKQSELAADYQTSRVTIQKALNILQMEGIIYGKKGTGTFIRDSY
soluble fraction (log2): -0.32

HMANYTVNAYNNGGTGGSVNMRSGPSTNDGIVVRVPHGATVTGTKSGTWSYMTYNTYTGYMMSVYLDEQS
soluble fraction (log2): -1.57

HMAPAPYLVKVTANKLNIRSGPGTNYKIQGAITDKGTYTIVDTQGRWGKLKSGAGWIYLNYTKK
soluble fraction (log2): -1.98

HMAPASADQLIDQLNEKVKAKDDKGVAALLTAAQTKMAELAQKDPKEAQAYVAKLQQWMQSNSENIKAALK
soluble fraction (log2): 0.439

HMAPAYELTEEETKIIEILKANENIDLNELKSQAALSGKKWDKSMKNLAKYNLTKVTVDGDAKTVAYLA
soluble fraction (log2): 0.164

HMAPELSGEKLWDAQDVAMFLRVKPTTVWSYVSRDGFPAPVSQAGRAGMWSEPLVVQWYLSRPG
soluble fraction (log2): 0.154

HMAPEPFILSVDADGKYYIDDLEKTKQEILIYATALYQEKPTTDFLVRGDKSAAYNDVLQAMVVLKE
soluble fraction (log2): 0.325

HMAPETALQILEQIQINPKVTMTDLANLTGYSRRWVAQTMKQLQELNVIKRVGSTKTGYWEIIA
soluble fraction (log2): -0.576

HMAPGSKAEIPEDLMKVINKDPKMKAFVATLNKANIMAISFRLSTAKKPETRERRFNLILETLKRGEKF
soluble fraction (log2): -3.16

HMAPKVTLNETETAIFEKMQQEKQLLLSELRTHFDISNKLWDTSIKTLTKNQLLTVSKEADLLWIKL
soluble fraction (log2): -1.34

HMAPLAVIFPEPWRGMIAPEKLEGLTQALSLNPRPGYQHDPTRRYGVSLDGLDVRFTIDGDTLTVVEVVT
soluble fraction (log2): -1.64

HMAPNKLQQQEVWTKALPLLQQMIMTIRQIDAAGGDSSPERELLEETAARFDETLDVERFLP
soluble fraction (log2): -0.339

HMAPPPLAGAREALREQIRRGSLSARRGFDAYADALGLPAGTRGAHPIFAALQRLDYPQALRLLDQEPT
soluble fraction (log2): -0.0614

HMAPQVKIPNLVDVSQRQAEAILNSYGLKVGHLIYKPDLAKDAVLGFMFNGRSLKAGDELAKGSSIDLILG
soluble fraction (log2): -0.277

HMAPRDKADKYVAAGIAEELVPILQKVGYYLVTDLKDVKAQKIQQQIGEIIKKYKLDIEKPSVQDIEGWN
soluble fraction (log2): -0.192

HMAQDIEQLEKAVSFYTRMDPAAAALSITNLDQKTAVNILMRMKDKQASAVLESMTAERSSELIDSIARK
soluble fraction (log2): 0.0292

HMAQELPYEKVTMNGKMFYVYHVKAGEGLYLISRTFSVNADEILKFNPSIENGLKSGQVLYIPIK
soluble fraction (log2): -1.23

HMAQISDESALYDLVKSVLDANPQSIADYKAGRDRALGFLMGQAMKLSKGKANPPVINKILKEMLDK
soluble fraction (log2): 0.161

HMAQKQLYIAGTDYTKNSTSQLVLAYFPAKPSSIKIFFDGIYQNKDKWSLFGKTIIFGLPISSNAVEVHYE
soluble fraction (log2): -4.34

HMAQLPADLSKVKSSQISDQQLTQIAQQAKNSGQSEQAVLQELKQRGLPDTEIQALGARISGLMQ
soluble fraction (log2): 0.211

HMAQLVVTVDKLNKRTAIPVTLSDKSSNDSVVEKGFRFEGFPFVNTATNGKKWYKDREGFFYWAGGLMEEA
soluble fraction (log2): 0.0903

HMAQMDDPEMVLHIYNKMIQQRLFDTAVGYSYLKDLQEYLQSIPFIRKEDIFPIPVQHPQVEESLRKAK
soluble fraction (log2): -0.689

HMAQTSAELIIEYLKRNDGFMELTDKSPADEIYETFGISKKNFKMAVGSLYKNRVIEIGQNGIRLVE
soluble fraction (log2): -0.426

HMAQTTKWREIHKVKRKETIFGIARDNGLTVDELIEANPEMTKPGYELKKGDFIYIPFPSKNIDTNAGTQT
soluble fraction (log2): 0.498

HMARAESYGDIARLEQLLDEHANIAALDPGKLPAVRQQIWTLMRAARMDHDLGLAERPEDDSFDDMLLHV
soluble fraction (log2): 0.208

HMARAPIYPDGLTQREVEVLSLVAAGKTDREIAEELFIALRTVTTHVGNILNKIGAANRTEAAGYATRQGL
soluble fraction (log2): -1.7

HMARAVSPLEAIPGVGPRRRQQLLKQLGGMQEVARAGVEDLSRVPGISRALAQQIYDAFHGD
soluble fraction (log2): -0.287

HMARDPWDVLGVAKTATNDEIKRAFKRQAMMTHPDKQGGSEERFKEVNEAYSHIKDEQSRAKYQNSQ
soluble fraction (log2): 0.158

HMARDSYNGVQRTISTLLGQGNYDRAYDVAVGARGQMSKQQWSDVAKRIYEVSGIKIDDSVKY
soluble fraction (log2): -0.113

HMARRSRADAVRNREALIDAAKAAFTEAGPDVSLEEIARRAGVGIGTLYRHFPTRDAVIEAVYR
soluble fraction (log2): -0.185

HMARRTPPPTVSELNALLRVAAPHIQRVILLGIYTGARIGPSELFSLKWDDVDLTRGVIGIRL
soluble fraction (log2): -0.0659

HMARTDVKLREVAQELLRMGLLEESLRPHLYRTALASMERLNATLEPLDLIARADEIRGLVFLAVRH
soluble fraction (log2): -2.73

HMARVSGIDLPKNKRGYIGLTYIYGIGRSTALHILNSAGVDPEKKVHEWNDDETTAIRNIINAEIKVEGAL
soluble fraction (log2): -0.631

HMASAKTVAQSGTYKFAKTTAIKSSASDAASTVGTYYKGNTVNYNAKVTTNGQTWLRYTSYSGAQYYVKVS
soluble fraction (log2): -3.66

HMASANMPDVLGLDAETAKQVLAAKGFTKVEIYPMESSEPANRVVRQSEDRDTMVALTKEILLGVSNGS
soluble fraction (log2): 0.0531

HMASENISYSQFINQVKNSMVESVSIEADGKTISGKYKSGSSFVTYGLNDPKLVDDLLSNNVEIL
soluble fraction (log2): 0.143

HMASGLITEEQAKSKALAHAGLSASQVNFIWVKQDWEDGRRVYEVEFYTDDYQEYDYEIDARTGEILSFDY
soluble fraction (log2): -1.84

HMASIGTATVTADNLRLRSEAGTGAETLTMAPKGAEVTVEEDAGDGWYKVTYGDTEGYMSGEWLKITLA
soluble fraction (log2): -0.0355

HMASLIGEEKALQIALEHAGVALENVAYSQVKLENDDGRWEYDTEFYSGSKEYDYEIDASTGEILGYDHD
soluble fraction (log2): 0.0872

HMASLSITVNGETRRAAPGSIADLVRAIGLDPAKVAVERNGEIAPRSTLADVALADGDVLEIVHFVG
soluble fraction (log2): -0.359

HMASMEDILAEAKTKFQEGDLFKSVNEGIQGTHKLTLPLRIKESRIVDASGAAVYREGIWATVDK
soluble fraction (log2): 0.166

HMASMNPVWLEFPNIPWGSAGWRMGWGEDYMRRWAKWYISLAEVERQSYKSDWPEPQEWEGFYAFMEHGT
soluble fraction (log2): -1.85

HMASPEIAFLNKFYQLSNTVNEISVMKIVKNYQEKYQQRISIEQMAKTLKTMGYAVRNNIISNIEEAPV
soluble fraction (log2): -1.53

HMASPRVWKDASSGRTLTGEFVELTKDAVKVRRANGDVVSLPLSRLTEEDITFAKGASETGGA
soluble fraction (log2): 0.198

HMASVLTAKLSEREVDVLNLLARGFTNADIAAQLHLSEGTVRNHVSTIFAKLDVNDRTQAAVIAIRHGL
soluble fraction (log2): -2.52

HMASVLTGMLGRVTGELAPKGIVMVGNETWTAVSEDDSVIRIGEPVEVRSVEGLILTVFRRID
soluble fraction (log2): -2.66

HMATAADLLQSATGVPRSDALLLLAKLLGVAKERLIAHPETVVSEKTQATFSDWIERVRGGFPTTYLLG
soluble fraction (log2): -0.393

HMATAEETTPLWARNRLSHAIFGPGSVTGEDERSFEVAFDNGDTLNFSKKSAHLYFTAMSSR
soluble fraction (log2): -0.169

HMATARPPPPPESRVEVLFDGRWYAGTVVGGALDEHRATVFFDADRLSQVINFAETGIRVLGT
soluble fraction (log2): -0.123

HMATEYIIPTVTNKKLEEAIGIAQLRGFEISVDEYKPSDIDEGTVLEQSPAAGTNAKQGDTISVTVSSG
soluble fraction (log2): 0.476

HMATFTPYLVRITASVLNIRKGPGTTYAVTGQIKDRGVYTIVEQKGNWGRLKSGAGWISLSYTKK
soluble fraction (log2): -3.25

HMATPAFEMYKVRRGDTPAGLAKEWGFPDMASFYRINPDARSDWKRGLQLVKPMNEMAVLQATA
soluble fraction (log2): -0.302

HMATPKYMELVRWINEQIESKNLVPGQKMYSENTLKEMFGVSRQTVRHAIGVLENEGVIRRIQGSGTYIN
soluble fraction (log2): -1.51

HMATPSTGQVSVVRLNLRVSPSISSPVVTRLTQGDTVKILAASDDGRWYKVATADGRTGWLYTIYITAE
soluble fraction (log2): -1.34

HMATQTGTVKWFNEGKGFGFIAPDDGSKDLFAHFSEIKTTGFKTLAEAQRVEFEVTEGRKGLQASNIK
soluble fraction (log2): 0.442

HMATRLPFGFAKRFGVLVEGKDDQITVYHKDGLQTAVILEIQRYLARPFRFEAVTPEEFERRLGLAYQS
soluble fraction (log2): -2.44

HMATSNDTQITGSLALRFDGSGDTFTVNVNGDDKLEINTEGTVIYKPLTTAPTYVSGGLFFSSSGDFYVG
soluble fraction (log2): 0.00147

HMATTIDFTVGDDVQVMNGPLESFTGKVTELNEASQKVKVDVVMFGRVTNVELDFVQVKKIT
soluble fraction (log2): -1.04

HMATTIEAPMPGKILDVKVNPGQAVSYGQVVLTMEAMKMETEIVAPADGTVASVLVKSGDMVETGAALVSL
soluble fraction (log2): -0.344

HMATTMSADWRPSEDAVGILVNAEINARFIEDAIPEFVLYWRERGAVHGAWNSKFIEHIRRQWAKFSAS
soluble fraction (log2): -2.84

HMATTPEETILEYINKNNRISKQEIADLMGITRDGVSYHIKKLRKNGLLEWIGSPSNGHWEIIE
soluble fraction (log2): 0.38

HMATVHPIRIQGGMTTQQGGKTVWLWVSDEGRLMTEDEIAGESGGTVSSRMVRGVRVLTGTGVIYG
soluble fraction (log2): -1.96

HMATVIDVATTLGRPITDPDEQRQVLNWIGKTERIISARLGDLAALDRQILADVISEVVARRARN
soluble fraction (log2): -0.495

HMATVNIGNLTFTHKGDYASGTTYAKNDVVYYSTNGNAYIAKQATQGNAPTSTAHWDVFAAGSGG
soluble fraction (log2): 0.245

HMAVDAASSTIGKNVEVSVANEKGDYENFNGKVKSASIKDGVVYLELELKDTGEIKEVPYSSLTKIT
soluble fraction (log2): 0.0437

HMAVDPSVLTRRERQALAWIARGLSNKEVARGLNLAESTVKVHVQSILRKLNLTSRVQAAVYAIEHGIDK
soluble fraction (log2): -3.08

HMAVFRVGDKVKSMEGMIGEVRGINGRLIQVATPYGLRDYYPHQITKVENPLAAAPAPLNEEA
soluble fraction (log2): 0.767

HMAVGVFQKEDGYWGYRFSIIVDGKTIARRKFTDENGSKLRTKSEAVKARAAAMVAARMERVS
soluble fraction (log2): -3.46

HMAVIILDEPTLGLDPAVRISLWQAIQSARDSTMSAFLITTHYIKEVADYLSAVKILDHGREVASGNPSAL
soluble fraction (log2): -0.313

HMAVKLELYRVFKEVAETGNISAAAKNLYISQSAVSQSIKQLETALQARLFARSPRGVTLTGEGQMLYQYV
soluble fraction (log2): -1.5

HMAVKNAQIDVQQFFYSKSGEVDFGRKIKAIQSHFTPERLQSFTAAVPPSQWVSQLQVMWDSL
soluble fraction (log2): -2.12

HMAVLGIQPVFHRSTGQTVYKSSVNTAKGRVYLGLFPTLTEALEIKLKYMQEHGHTKGITNLTNKLKEL
soluble fraction (log2): -1.05

HMAVPFTIDVSQNGRYFIEEDNQVVEVSIGFLEDRFLRIIKSNPDIEVIIRGDAKASYESIAELLAVLQ
soluble fraction (log2): -0.904

HMAVQPMDQVKAWLAEDNPADIKLLVPVLQKLDLLDYEQVRGEVADRAGVRKSLLDEAVKGN
soluble fraction (log2): 0.0888

HMAVRTELLALPAGWHGDASRLSTALAALQGVREAVVIASEGVAYLKVHGHDWDRDGARELLQN
soluble fraction (log2): -1.12

HMAVSGRGSIIGGVATVLDDFADSGKVWLEGEAWQARSSVPLKQDQEVVVRAMDGLVLVVEPVA
soluble fraction (log2): -0.442
